Measured values published in patent publication US7521540B2, “CYR61 compositions and methods” (Munin Corporation, priority 1996, dated 2009).

B1: Fisp12: Cysteine-rich murine protein, SEQ ID NO:6, mouse ortholog of CTGF (protein, listed as Mus musculus)
chain: MLASVAGPISLALVLLALCTRPATGQDCSAQCQCAAEAAPHCPAGVSLVLDGCGCCRVCAKQLGELCTERDPCDPHKGLFCDFGSPANRKIGVCTAKDGAPCVFGGSVYRSGESFQSSCKYQCTCLDGAVGCVPLCSMDVRLPSPDCPFPRRVKLPGKCCKEWVCDEPKDRTAVGPALAAYRLEDTFGPDPTMMRANCLVQTTEWSACSKTCGMGISTRVTNDNTFCRLEKQSRLCMVRPCEADLEENIKKGKKCIRTPKIAKPVKFELSGCTSVKTYRAKFCGVCTDGRCCTPHRTTTLPVEFKCPDGEIMKKNMMFIKTCACHYNCPGDNDIFESLYYRKMYGDMA
B2: Cyr61: Cysteine-rich ECM signaling protein; murine sequence SEQ ID NO:2, recombinant from Baculovirus-infected Sf9 cells (protein, listed as Mus musculus)
chain: MSSSTFRTLAVAVTLLHLTRLALSTCPAACHCPLEAPKCAPGVGLVRDGCGCCKVCAKQLNEDCSKTQPCDHTKGLECNFGASSTALKGICRAQSEGRPCEYNSRIYQNGESFQPNCKHQCTCIDGAVGCIPLCPQELSLPNLGCPNPRLVKVSGQCCEEWVCDEDSIKDSLDDQDDLLGLDASEVELTRNNELIAIGKGSSLKRLPVFGTEPRVLFNPLHAHGQKCIVQTTSWSQCSKSCGTGISTRVTNDNPECRLVKETRICEVRPCGQPVYSSLKKGKKCSKTKKSPEPVRFTYAGCSSVKKYRPKYCGSCVDGRCCTPLQTRTVKMRFRCEDGEMFSKNVMMIQSCKCNYNCPHPNEASFRLYSLFNDIHKFRD

Legend:
αllbβ3 = target: T1, αllbβ3 (Homo sapiens, UniProt P05106+P08514); assay: Solid-phase binding assay with purified integrin; settings: for Kd: RGD-affinity purified αllbβ3, immobilized protein, read-out: half-saturation of activated αllbβ3 binding
T1 construct: from tissue; host or cells: outdated human platelets
Protocol: In these experiments, activated and unactivated αllbβ3 were purified from platelet lysates. Activated αllbβ3 was purified by RGD affinity chromatography, as described (Knezevic et al., J. Biol. Chem. 271:16416-16421 [1996]). Briefly, outdated human platelets were isolated by differential centrifugation and solubilized in lysis buffer (10 mM HEPES, pH 7.4, 0.15 M NaCl, containing 1 mM CaCl2, 1 mM MgCl2 100 μM leupeptin, 1 mM phenylmethylsulfonyl fluoride, 10 mM-ethylmaleimide, and 50 mM octylglucoside). The octylglucoside extract was incubated with 1 ml GRGDSPK-coupled Sepharose 4B overnight at 4° C. After washing with 15 ml column buffer (same as lysis buffer except it contained 25 mM octylglucoside), bound αllbβ3 was eluted with 1.7 mM H12 (2 ml) in column buffer. The H12 eluate was applied to a Sephacryl S-300 High Resolution column (1.5×95 cm), and αllbβ3 was eluted with 10 mM HEPES, pH 7.4, 0.15 M NaCl, 1 mM CaCl2, 1 mM MgCl2 and 25 mM octylglucoside.
Unactivated αllbβ3 was isolated by the method of Fitzgerald et al., Anal. Biochem. 151:169-177 (1985), with slight modifications. The flow-through fraction of the GRGDSPK-Sepharose column was applied to a concanavalin A-Sepharose 4B column (1×20 cm). Unbound proteins were washed with 50 ml column buffer, and bound αllbβ3 was then eluted with 100 mM mannose dissolved in column buffer. Fractions containing αllbβ3 were further purified on a Sephacryl S-300 High Resolution column
To perform the solid-phase binding assay, purified αllbβ3 was added to wells coated with either Cyr61 or Fisp12 (mCTGF) in the presence or absence of inhibitors and binding was allowed to proceed for 3 hours at 37° C. Unbound receptor was removed and the wells wee washed twice with HEPES-Tyrode's Buffer. The binding of purified αllbβ3 to Cyr61 or Fisp12/mCTGF immobilized onto microtiter wells was detected with ^125I-mAb15.

HUVE cells = assay: Thymidine incorporation (mitogen potentiation), HUVE cells; format: cell-based, human
Protocol: Human umbilical vein endothelial cells were plated essentially as described above for 3T3 cells and exposed to a constant amount of murine Cyr61; controls received no Cyr61. Different plates were then exposed to different levels of bFGF, comprising a series of bFGF concentrations ranging from 0-10 ng/ml. […] At 1 ng/ml bFGF, however, HUVE cells increased their thymidine incorporation in the presence of bFGF to 6×10^2 cpm; in the presence of 1 ng/ml bFGF and murine Cyr61, HUVE cells incorporated 1.3×10^3 cpm. At 10 ng/ml bFGF, cells exposed to bFGF incorporated about 1.8×10^3 cpm thymidine; cells receiving 10 ng/ml bFGF and Cyr61 incorporated approximately 6.1×10^3 cpm.
The capacity of murine Cyr61 to potentiate the mitogenic activity of bFGF was verified by a thymidine incorporation assay involving HUVE cells and various combinations of bFGF, Cyr61, and anti-Cyr61 antibodies. Cells were plated and grown as described above. The following combinations of supplements (final plate concentrations noted parenthetically) were then pre-incubated for 1 hour before addition to individual plates: 1) pre-immune antiserum (3%); 2) bFGF (15 ng/ml) and pre-immune antiserum (3%); 3) pre-immune antiserum (3%) and Cyr61 (4 μg/ml); 4) pre-immune antiserum (3%), Cyr61 (4 μg/ml), and bFGF (15 ng/ml); 5) anti-Cyr61 antiserum (3%); 6) anti-Cyr61 antiserum and bFGF (15 ng/ml); 7) anti-Cyr61 antiserum (3%) and Cyr61 (4 μg/ml); and 8) anti-Cyr61 antiserum (3%), Cyr61 (4 μg/ml), and bFGF (15 ng/ml).
DNA synthesis for HUVE cells and NIH 3T3 fibroblasts was measured by thymidine incorporation as described previously (Kireeva et al., [1996]) with minor modifications. HUVE cells were grown in 24-well plates to a subconfluent state, serum-starved for 24 hours and treated with F12K medium containing 10% fetal bovine serum (FBS), 1 μCi/ml [^3H]-thymidine and 10 ng/ml basic Fibroblast Growth Factor (bFGF) (Gibco-BRL, Inc.) with various concentrations of Cyr61 and Fisp12 as indicated. NIH 3T3 fibroblasts were grown to subconlfluence, serum-starved for 48 hours, and treated with Minimal Essential Medium (MEM) containing 0.5% FBS, 1 μCi/ml [^3H]-thymidine, bFGF and various concentrations of Cyr61 or Fisp12. Thymidine incorporation into the trichloroacetic acid-insoluble fraction was determined after 24 hour incubation. Logarithmically grown mink lung epithelial cells (Mv1lu, CCL64) were treated with various concentrations of TGF-β1 (Gibco-BRL) and 2 μg/ml of Cyr61 or Fisp12 for 18 hours; [^3H]-thymidine was then added to 1 μCi/ml for 2 hours. Thymidine incorporation was determnined as described above.

Molecule	binding of activated versus unactivated αllbβ3 (αllbβ3)	Kd (αllbβ3) [nM]	enhancement of FGF-induced DNA synthesis (HUVE cells; HUVE-cells, bFGF 10 ng/ml)	thymidine incorporation, baseline (HUVE cells; 0-0.1 ng/ml bFGF, presence or absence of Cyr61, 72 hours)	thymidine incorporation with bFGF and Cyr61 (HUVE cells; 1 ng/ml bFGF)	thymidine incorporation with bFGF and Cyr61 (HUVE cells; 10 ng/ml bFGF)
B1	greater binding of activated versus unactivated	15	enhance DNA synthesis induced by fibroblast growth factor			
B2	greater binding of activated versus unactivated	25		approximately 4×10^2 cpm	1.3×10^3 cpm	approximately 6.1×10^3 cpm
